In test [1] the target is T1, mouse GPNMB endogenously expressed on B16F10 cells (mouse, UniProt Q99P91 23-574).
T1 construct: whole, on cells; also called moGPNMB
T1 sequence (looked up): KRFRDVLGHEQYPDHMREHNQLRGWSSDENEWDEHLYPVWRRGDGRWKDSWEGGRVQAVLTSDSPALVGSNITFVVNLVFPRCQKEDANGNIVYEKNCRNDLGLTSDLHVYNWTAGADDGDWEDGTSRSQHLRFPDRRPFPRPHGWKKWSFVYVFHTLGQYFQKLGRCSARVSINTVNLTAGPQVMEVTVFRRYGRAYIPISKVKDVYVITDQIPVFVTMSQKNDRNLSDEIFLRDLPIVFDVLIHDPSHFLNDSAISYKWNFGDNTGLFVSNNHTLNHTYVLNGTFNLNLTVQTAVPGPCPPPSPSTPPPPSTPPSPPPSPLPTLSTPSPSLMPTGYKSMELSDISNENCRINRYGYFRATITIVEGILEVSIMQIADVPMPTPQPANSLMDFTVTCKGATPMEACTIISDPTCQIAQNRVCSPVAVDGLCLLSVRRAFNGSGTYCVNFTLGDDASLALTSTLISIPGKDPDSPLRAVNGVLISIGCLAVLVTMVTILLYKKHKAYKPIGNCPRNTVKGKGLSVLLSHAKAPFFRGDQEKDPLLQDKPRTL
The test is described as follows: FACS, B16F10 cells. The procedure, abridged: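 Cells (100,000/well) stained 30 min on ice with anti-GPNMB antibody in PBS/2% FBS/2 mM EDTA, then 1 μg/ml APC anti-human IgG for 30 min on ice. Binding read by flow cytometry as MFI.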
(Flow cytometry measures light scatter and fluorescence of single cells or particles in a stream.)

Test [2] concerns the target T2, full-length untagged human GPNMB expressed on cells (human, UniProt Q14956 23-572).
T2 construct: also used here for GPNMB on human monocyte-derived macrophages in the functional assays; also called huGPNMB; Freestyle293-huGPNMB+
T2 sequence: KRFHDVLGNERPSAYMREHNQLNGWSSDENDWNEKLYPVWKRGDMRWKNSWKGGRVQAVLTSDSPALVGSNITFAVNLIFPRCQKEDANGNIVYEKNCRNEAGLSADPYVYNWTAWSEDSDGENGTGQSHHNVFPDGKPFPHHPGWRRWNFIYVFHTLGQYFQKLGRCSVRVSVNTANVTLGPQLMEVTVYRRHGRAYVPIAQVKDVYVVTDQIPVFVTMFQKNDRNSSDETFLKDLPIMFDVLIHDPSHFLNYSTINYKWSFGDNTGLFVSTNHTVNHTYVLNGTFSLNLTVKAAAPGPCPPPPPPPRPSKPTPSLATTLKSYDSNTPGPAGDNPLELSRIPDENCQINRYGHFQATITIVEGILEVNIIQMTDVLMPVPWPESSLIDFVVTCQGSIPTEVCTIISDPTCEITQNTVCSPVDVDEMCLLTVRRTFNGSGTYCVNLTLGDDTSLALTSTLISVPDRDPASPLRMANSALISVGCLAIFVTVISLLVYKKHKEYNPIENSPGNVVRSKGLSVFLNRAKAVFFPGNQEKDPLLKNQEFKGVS
The test is described as follows: FACS titration, FS293-huGPNMB+ cells. The procedure:
Cell-based binding measurements were also performed to measure the apparent affinities of anti-GPNMB antibodies of the present disclosure to cell-surface expressed GPNMB. Serial dilutions of the monoclonal anti-GPNMB antibodies were added to 100,000 Freestyle293-huGPNMB+ or B16F10 cells and allowed to achieve binding equilibrium at 4° C. After addition of fluorescently labeled secondary antibody and brief washing steps, MFI values as a function of titrated antibody concentration was recorded via FACS analysis. Curves were fit using nonlinear regression analysis with Graphpad Prism 6 software.

Test [3] has as its target T1, mouse GPNMB endogenously expressed on …. The test is described as follows: FACS on B16F10 mouse melanoma cells (endogenous mouse GPNMB); single antibody concentration (not given); APC anti-human IgG secondary; MFI as fold over background. The procedure: Recombinant anti-GPNMB antibodies of the present disclosure were examined for their ability to bind human and/or mouse GPNMB expressed on Freestyle293-huGPNMB+ or B16F10 cells, respectively. B16F10 cells are a murine melanoma cell line from a C57BL/6J mouse that endogenously express high levels of mouse GPNMB. The antibodies were also tested for their ability to bind to a human macrophage cell line (U937 cells) engineered to express human GPNMB. Cells were harvested, plated at 100,000 cells/well in a 96-well round bottom plate, and incubated in 100 μl FACS buffer (PBS containing 2% FBS, 2 mM EDTA) containing anti-GPNMB monoclonal antibodies of the present disclosure for 30 minutes on ice. Cells were then washed and incubated in 100 ul FACS buffer containing 1 μg/ml APC-conjugated anti-human IgG secondary antibody for 30 minutes in ice. Cells were washed twice in cold FACS buffer and acquired on a BD FACS Canto. Data analysis and calculation of MFI values was performed with FlowJo (TreeStar) software version 10.0.7. […]

B1: anti-GPNMB antibody GPN-03 (antibody, human IgG1, V domains shown)
VH: QVQLQQSGPELVKPGASVKLSCKASGYTFTNYYMYWVKQRPGQGLEWIGEINPRNGGTNFNEKFKSKATLTVDKSSSTAYMQLSSLTFEDSAVYYCTTGLAYWGQGTLVTVSA
VL: DVVMTQTPLSLPVSLGDQASISCRSSQSLVHSDGNTYLHWYLQKPGQSPKLLIYKVSTRFSGVPDRFSGSGSGTDFTLKISRVEAEDLGVYFCSQSTHVPWTFGGGTKLEIK
notes: chimeric
For the molecule B1, in test [1], the “MFI fold over background” value turned out to be 1.1 fold. In addition, in test [2], the 50% effective concentration (EC50) (in general, the concentration needed to bring the measured effect to its halfway point) stood at 3.38 nM. The binding result in test [3] is “no binding”.

B2: anti-GPNMB antibody GPN-06 (antibody, human IgG1, V domains shown)
VH: QVQLQQSGAELVKPGASVKLSCKASGYTFTNYYMYWVKQRPGQGLEWIGEINTRNGGTNFNEKFKSKATLTVDKSSSTAYMQLSSLTSEDSAVYYCTTGFAYWGQGTLVTVSA
VL: DIQMTQSPASLSASVGETVTITCRASENIYSYLVWYQQNQGKSPQLLVYNAKTLAEGVPSRFSGSGSGTQFSLKINSLQPEDFGTYYCQHHYGTPFTFGSGTKLEIK
notes: chimeric
Regarding B2, the “MFI fold over background” value in test [1] is 1 fold. This molecule yielded an EC50 in test [2] of 1.61 nM. Also, the binding result in test [3] is “no binding”.

B3: anti-GPNMB antibody GPN-37 (antibody, human IgG1, V domains shown)
VH: EVQLVESGGGLVQPGRSLKLSCAASGFTFSSKSGMAWVRQAPTKGLEWVASISNGGGDTYYRDSVKGRFTISRDNAKNTQYLQMDSLRPEDTATYYCARHRDYGYDAYFDYWGQGVMVTVSS
VL: DIQMTQSPASLSASLGETVTIECLASEDIYSSLAWYQQKPGKSPQLLIYDASSLQDGVPSRFSGSESGTQYSLEINSLQSEDAATYFCQQHHDYPYTFGAGTKLELK
notes: chimeric
B3: in test [1], the “MFI fold over background” value came to 0.8 fold. In test [2], this molecule displayed an EC50 of 0.75 nM. Moreover, the binding result in test [3] is on record as “no binding”.

B4: anti-GPNMB antibody GPN-08 (antibody, human IgG1, V domains shown)
VH: QVQLQQPGAELVKPGASVKLSCRASGYTFTSYWLHWVKQRPGQGLEWIGEINPSDGRTNYIEKVKTKATLTVDKSSSTAYMQLSSLTSEDSAVYYCARSGGNYAWFAYWGQGTLVTVSA
VL: DIVMTQSHKFMSTSVGDRVSITCKASQDVSPSVAWYQQRPGQSPKLLIYSASYRYTGVPDRFTGSGSGTDFTFTISSVQAEDLAVYYCQQHYSIPLTFGAGTKLELK
notes: chimeric
Regarding B4, the “MFI fold over background” value in test [1] was found to be 1 fold. In test [2], a half-maximal response (EC50) required 0.87 nM. Besides, the binding result in test [3] is given as “no binding”.

(Values after US20250270343A1 (Alector, published 2025).)
